Data taken from US11364280B2, “Method for blocking stress-induced tumor progression” (Taipei Veterans General Hospital, priority 2018, dated 2022).

Legend:
[1] = tested on: MSI1 translocation into the cytosol in 05 MG cells; experiment: MSI1 subcellular translocation (immunostaining, fractionation immunoblot); type: cell-based, human; conditions: LMB 10 ng/mL, 2 h pre-treatment; hypoxic and cisplatin treatment
Procedure: Magnifying power: 200× (top) and 600× (bottom). Quantitation of cells expressing cytoplasmic or nuclear MSI1 is shown in the bar graph on the right. FIG. 1B 05 MG cells pre-treated with or without nuclear export inhibitor leptomycinB (LMB) (10 ng/mL, 2 h) under normoxia or hypoxia conditions for 24 hr were subjected to anti-MSI1 (green) immunostaining and DAPI (blue) nuclear counterstaining. Images were acquired from Carl Zeiss confocal microscope system. The intensity of green fluorescence in nuclear and cytosol was quantified and shown as relative percentage in the graph at the right. […] FIG. 1D provides a schematic showing the mutation sites in the NLS (orange) and NES (red) of human MSI1. All constructs were sub-cloned into p-3×Flag-Myc-CMV expression vector. […] Images were acquired from Carl Zeiss confocal microscope system, and the quantification of fluorescent intensity in the nuclear and cytosolic compartments was shown as relative percentage in the graph at the left. […] Tumor size was measure with a caliper at the indicated time points. […] The tumor size was measured with a caliper at the indicated time points. […]
The ratio of MSI1 expression in each group was presented in the graph. […] Hypoxia-induced apoptosis was withdrawn by the over-expression of wild-type MSI1 but not in mutant MSI1 groups determined by annexin V staining, MTT assay, and colony forming assay. […]

[2] = target: T1, His-tagged AGO2 recombinant protein (Homo sapiens, UniProt Q9UKV8); experiment: PepSpot high-throughput peptide tiling array; type: binding; conditions: 27 peptides of MSI1 C-terminus
T1 construct: made in house; host or cells: High Five insect cells (baculovirus, Bac-To-Bac; virus made in Sf9)
Procedure: The relative orientation of peptide-binding site and AGO2 pocket was depicted. […] The recombinant AGO2 protein was immobilized on CM5 chip and incubated with a serial dilution (from 625 to 10000 nM) of the two peptides, respectively. The association and dissociation between TAT-11, TAT-26 and immobilized AGO2 were tested by SPR (top). The association rate constant (Ka), dissociation rate constant (Kd), and equilibrium dissociation constant (KD) were calculated and presented in the chart (bottom).
To rapidly screen the putative binding hotspots along the C-terminus of MSI1, we mimicked the epitope screening method by dotting the synthetic short peptides on nitrocellulose membrane and incubated with purified AGO2 protein^39. The C-terminus of MSI1 (201-262) was divided into 27 individual synthetic peptides with N-terminal amine attached on the nitrocellulose. Each peptide is 15 amino acids in length and has […] overlapping with the previous neighboring peptide (Suppl. Table IV). The purchased PepSpot membrane (JPT peptide technologies, Berlin, Germany) was firstly rinsed by methanol for 5 minutes, followed by Tris buffer saline supplemented with 0.1% Tween-20 (TBS-T) washing thrice. […]

T1 sequence (Q9UKV8 whole entry): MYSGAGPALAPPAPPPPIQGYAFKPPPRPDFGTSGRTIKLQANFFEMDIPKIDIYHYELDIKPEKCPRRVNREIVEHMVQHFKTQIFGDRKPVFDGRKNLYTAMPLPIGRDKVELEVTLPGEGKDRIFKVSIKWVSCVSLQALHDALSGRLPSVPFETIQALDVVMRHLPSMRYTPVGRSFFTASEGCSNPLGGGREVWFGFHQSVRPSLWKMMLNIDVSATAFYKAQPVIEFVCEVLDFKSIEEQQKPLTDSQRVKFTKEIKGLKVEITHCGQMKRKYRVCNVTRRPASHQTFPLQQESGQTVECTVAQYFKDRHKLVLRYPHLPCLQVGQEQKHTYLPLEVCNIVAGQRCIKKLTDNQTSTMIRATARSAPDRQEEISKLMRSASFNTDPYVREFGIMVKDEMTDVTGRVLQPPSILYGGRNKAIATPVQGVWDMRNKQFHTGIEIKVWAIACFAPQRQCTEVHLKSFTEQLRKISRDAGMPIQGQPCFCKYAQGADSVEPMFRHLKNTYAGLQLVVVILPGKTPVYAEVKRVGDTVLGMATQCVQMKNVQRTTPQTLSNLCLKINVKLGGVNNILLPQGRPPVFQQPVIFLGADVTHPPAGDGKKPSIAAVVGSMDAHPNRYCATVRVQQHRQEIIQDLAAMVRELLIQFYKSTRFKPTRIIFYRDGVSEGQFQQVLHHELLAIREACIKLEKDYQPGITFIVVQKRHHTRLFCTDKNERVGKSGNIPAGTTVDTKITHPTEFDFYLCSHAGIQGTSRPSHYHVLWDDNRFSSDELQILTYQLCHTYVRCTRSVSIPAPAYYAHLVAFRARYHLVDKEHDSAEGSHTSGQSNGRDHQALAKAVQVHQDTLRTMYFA

Row | Molecule | MSI1 translocation into the cytosol [1] | binding of recombinant AGO2 to arrayed peptide [2]
1 | CCC(=C/[C@H](C)C/C=C/C(C)=C/[C@@H](C)C(=O)[C@@H](C)[C@H](O)[C@@H](C)C/C(C)=C/C(=O)O)/C=C/[C@@H]1OC(=O)C=C[C@@H]1C [Leptomycin B] | strongly reduced MSI1 translocation into the cytosol | –
2 | YQFPEFRVERTPLPS [compound 11] | – | preferentially bound
3 | HSLGGPLIATAFTNG [compound 26] | – | preferentially bound
